Data set [1] has as its target taxol-stabilised microtubules. Kind of data set: co-sedimentation; microtubule sedimentation, 15 nM tetrameric hKif15 with 30 nM dimeric hTpx2, AMP-PNP, 35 mM sodium phosphate buffer pH 7.0, 1 mM MgCl2, 1 mM EGTA, 1 mM DTT, 20 min at room temperature. The following applies: both partners purified.
Data set [2] concerns the molecule itself. The data set is described as follows: native gel or EMSA; 4-16% Native-PAGE gel stained with coomassie. On the technique in general: A gel shift assay detects complexes by their altered migration in electrophoresis.
Data set [3] deals with the molecule itself. Kind of data set: glycerol gradient ultracentrifugation; 5-40% glycerol gradient, 35 mM sodium phosphate buffer, 300 mM NaCl, 1 mM DTT, 4°C, 15 hr; tetramer to dimers.
Data set [4] deals with the molecule itself. Kind of data set: glycerol gradient ultracentrifugation; 5-40% glycerol gradient, 35 mM sodium phosphate buffer, 0-150 mM NaCl, 1 mM DTT, 4°C, 15 hr; apparent sedimentation coefficients.

These results are taken from PMC3965211, “The Kinesin-12 Kif15 is a processive track-switching tetramer” (eLife, 2014).

taxol-stabilised microtubules, sequence (chain, as listed by the source, chain 1 of 2): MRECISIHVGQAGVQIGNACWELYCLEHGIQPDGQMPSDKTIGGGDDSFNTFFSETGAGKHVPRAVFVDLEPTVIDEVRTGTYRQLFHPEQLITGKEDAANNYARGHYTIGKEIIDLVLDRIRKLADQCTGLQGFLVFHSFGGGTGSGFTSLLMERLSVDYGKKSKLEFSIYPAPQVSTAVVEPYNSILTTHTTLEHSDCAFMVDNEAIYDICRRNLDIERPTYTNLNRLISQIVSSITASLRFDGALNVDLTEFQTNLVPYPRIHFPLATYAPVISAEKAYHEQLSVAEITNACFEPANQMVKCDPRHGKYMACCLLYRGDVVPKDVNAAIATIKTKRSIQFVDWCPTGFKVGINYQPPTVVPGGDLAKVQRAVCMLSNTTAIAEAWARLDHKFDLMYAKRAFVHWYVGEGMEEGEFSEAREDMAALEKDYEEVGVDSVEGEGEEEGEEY
taxol-stabilised microtubules, sequence (chain, as listed by the source, chain 2 of 2): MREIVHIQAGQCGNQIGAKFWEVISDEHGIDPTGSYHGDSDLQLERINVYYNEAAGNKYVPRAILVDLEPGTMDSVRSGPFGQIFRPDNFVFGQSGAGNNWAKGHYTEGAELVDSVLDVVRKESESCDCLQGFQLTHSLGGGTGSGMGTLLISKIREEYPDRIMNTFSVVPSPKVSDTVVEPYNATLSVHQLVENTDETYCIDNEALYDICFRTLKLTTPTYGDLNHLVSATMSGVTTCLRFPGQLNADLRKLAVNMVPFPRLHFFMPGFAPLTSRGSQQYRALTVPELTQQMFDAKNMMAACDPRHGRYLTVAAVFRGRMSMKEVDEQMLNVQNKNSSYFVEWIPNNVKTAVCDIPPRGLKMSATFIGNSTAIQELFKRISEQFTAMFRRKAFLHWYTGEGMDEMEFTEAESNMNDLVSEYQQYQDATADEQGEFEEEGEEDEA

B1: Full-length human His6-Kif15 (natural protein, UniProt Q9NS87 1-1388, looked up)
chain: MAPGCKTELRSVTNGQSNQPSNEGDAIKVFVRIRPPAERSGSADGEQNLCLSVLSSTSLRLHSNPEPKTFTFDHVADVDTTQESVFATVAKSIVESCMSGYNGTIFAYGQTGSGKTFTMMGPSESDNFSHNLRGVIPRSFEYLFSLIDREKEKAGAGKSFLCKCSFIEIYNEQIYDLLDSASAGLYLREHIKKGVFVVGAVEQVVTSAAEAYQVLSGGWRNRRVASTSMNRESSRSHAVFTITIESMEKSNEIVNIRTSLLNLVDLAGSERQKDTHAEGMRLKEAGNINRSLSCLGQVITALVDVGNGKQRHVCYRDSKLTFLLRDSLGGNAKTAIIANVHPGSRCFGETLSTLNFAQRAKLIKNKAVVNEDTQGNVSQLQAEVKRLKEQLAELASGQTPPESFLTRDKKKTNYMEYFQEAMLFFKKSEQEKKSLIEKVTQLEDLTLKKEKFIQSNKMIVKFREDQIIRLEKLHKESRGGFLPEEQDRLLSELRNEIQTLREQIEHHPRVAKYAMENHSLREENRRLRLLEPVKRAQEMDAQTIAKLEKAFSEISGMEKSDKNQQGFSPKAQKEPCLFANTEKLKAQLLQIQTELNNSKQEYEEFKELTRKRQLELESELQSLQKANLNLENLLEATKACKRQEVSQLNKIHAETLKIITTPTKAYQLHSRPVPKLSPEMGSFGSLYTQNSSILDNDILNEPVPPEMNEQAFEAISEELRTVQEQMSALQAKLDEEEHKNLKLQQHVDKLEHHSTQMQELFSSERIDWTKQQEELLSQLNVLEKQLQETQTKNDFLKSEVHDLRVVLHSADKELSSVKLEYSSFKTNQEKEFNKLSERHMHVQLQLDNLRLENEKLLESKACLQDSYDNLQEIMKFEIDQLSRNLQNFKKENETLKSDLNNLMELLEAEKERNNKLSLQFEEDKENSSKEILKVLEAVRQEKQKETAKCEQQMAKVQKLEESLLATEKVISSLEKSRDSDKKVVADLMNQIQELRTSVCEKTETIDTLKQELKDINCKYNSALVDREESRVLIKKQEVDILDLKETLRLRILSEDIERDMLCEDLAHATEQLNMLTEASKKHSGLLQSAQEELTKKEALIQELQHKLNQKKEEVEQKKNEYNFKMRQLEHVMDSAAEDPQSPKTPPHFQTHLAKLLETQEQEIEDGRASKTSLEHLVTKLNEDREVKNAEILRMKEQLREMENLRLESQQLIEKNWLLQGQLDDIKRQKENSDQNHPDNQQLKNEQEESIKERLAKSKIVEEMLKMKADLEEVQSALYNKEMECLRMTDEVERTQTLESKAFQEKEQLRSKLEEMYEERERTSQEMEMLRKQVECLAEENGKLVGHQNLHQKIQYVVRLKKENVRLAEETEKLRAENVFLKEKKRSES
notes: Kinesin-12 Kif15 (hKlp2), human; complete ORF amplified from a cDNA library of hTERT-RPE1 cells; predicted molecular weight of His6-hKif15 164.8 kDa; A TEV cleavage site lies between His6 and the ORF (His6/TEV element of p11 in a modified pIEx/Bac1 vector); no cleavage is described; Tetramer at physiological ionic strength, dimer at 300 mM NaCl; also called hKif15; His6-hKif15; source: insect SF9 …
The term stoichiometry N denotes a count of units in the complex or per binding partner. Take B1: the “KD with 30 nM dimeric hTpx2” value in data set [1] turned out to be 490 nM. Further, the “stoichiometry N” value in data set [2] came to 4; in data set [3] it was 2.

B2: Full-length human His6-Kif15-eGFP (natural protein, UniProt Q9NS87 1-1388, looked up)
chain: MAPGCKTELRSVTNGQSNQPSNEGDAIKVFVRIRPPAERSGSADGEQNLCLSVLSSTSLRLHSNPEPKTFTFDHVADVDTTQESVFATVAKSIVESCMSGYNGTIFAYGQTGSGKTFTMMGPSESDNFSHNLRGVIPRSFEYLFSLIDREKEKAGAGKSFLCKCSFIEIYNEQIYDLLDSASAGLYLREHIKKGVFVVGAVEQVVTSAAEAYQVLSGGWRNRRVASTSMNRESSRSHAVFTITIESMEKSNEIVNIRTSLLNLVDLAGSERQKDTHAEGMRLKEAGNINRSLSCLGQVITALVDVGNGKQRHVCYRDSKLTFLLRDSLGGNAKTAIIANVHPGSRCFGETLSTLNFAQRAKLIKNKAVVNEDTQGNVSQLQAEVKRLKEQLAELASGQTPPESFLTRDKKKTNYMEYFQEAMLFFKKSEQEKKSLIEKVTQLEDLTLKKEKFIQSNKMIVKFREDQIIRLEKLHKESRGGFLPEEQDRLLSELRNEIQTLREQIEHHPRVAKYAMENHSLREENRRLRLLEPVKRAQEMDAQTIAKLEKAFSEISGMEKSDKNQQGFSPKAQKEPCLFANTEKLKAQLLQIQTELNNSKQEYEEFKELTRKRQLELESELQSLQKANLNLENLLEATKACKRQEVSQLNKIHAETLKIITTPTKAYQLHSRPVPKLSPEMGSFGSLYTQNSSILDNDILNEPVPPEMNEQAFEAISEELRTVQEQMSALQAKLDEEEHKNLKLQQHVDKLEHHSTQMQELFSSERIDWTKQQEELLSQLNVLEKQLQETQTKNDFLKSEVHDLRVVLHSADKELSSVKLEYSSFKTNQEKEFNKLSERHMHVQLQLDNLRLENEKLLESKACLQDSYDNLQEIMKFEIDQLSRNLQNFKKENETLKSDLNNLMELLEAEKERNNKLSLQFEEDKENSSKEILKVLEAVRQEKQKETAKCEQQMAKVQKLEESLLATEKVISSLEKSRDSDKKVVADLMNQIQELRTSVCEKTETIDTLKQELKDINCKYNSALVDREESRVLIKKQEVDILDLKETLRLRILSEDIERDMLCEDLAHATEQLNMLTEASKKHSGLLQSAQEELTKKEALIQELQHKLNQKKEEVEQKKNEYNFKMRQLEHVMDSAAEDPQSPKTPPHFQTHLAKLLETQEQEIEDGRASKTSLEHLVTKLNEDREVKNAEILRMKEQLREMENLRLESQQLIEKNWLLQGQLDDIKRQKENSDQNHPDNQQLKNEQEESIKERLAKSKIVEEMLKMKADLEEVQSALYNKEMECLRMTDEVERTQTLESKAFQEKEQLRSKLEEMYEERERTSQEMEMLRKQVECLAEENGKLVGHQNLHQKIQYVVRLKKENVRLAEETEKLRAENVFLKEKKRSES
notes: Kinesin-12 Kif15 (hKlp2), human; complete ORF from a cDNA library of hTERT-RPE1 cells, eGFP inserted via AscI/NotI behind the ORF; His6/TEV element before the ORF as in m1; also called hKif15-eGFP; His6-hKif15-eGFP; source: insect SF9 cells (baculovirus), purified (SP-sepharose cation exchange, then Talon/Co-NTA); not shown: His6, N-terminal, kept; eGFP, C-terminal, kept
B2: in data set [4], the “stoichiometry N” value was determined as 4.
